Starred links: 1 amine or outer side, 2 acyl side, 3 side chain; linkers in the order of their positions; H or OH if unused. Non-standard residues stand in square brackets, D forms with d. *: point of attachment. Bh4ClF = β-4-chloro-L-homophenylalanine, O=C(C[C@H](Cc1ccc(Cl)cc1)N[*:1])[*:2]; AC4Abu = α-carboxy-4-aminobutyric acid, O=C(C(CCN[*:1])C(=O)[*:3])[*:2]; Oic = O=C(O)[C@@H]1C[C@@H]2CCCC[C@@H]2N1; Phe(4-Cl) = N[C@@H](Cc1ccc(Cl)cc1)C(=O)O; γGlu = O=C(O)[C@H](CCC(=O)[*:2])N[*:1]; 1Nal = N[C@@H](Cc1cccc2ccccc12)C(=O)O; 2Nal = N[C@@H](Cc1ccc2ccccc2c1)C(=O)O; NMeR = CN[C@@H](CCCNC(=N)N)C(=O)O; Tridecanoyl = CCCCCCCCCCCCC(=O)*; hArg = N=C(N)NCCCC[C@H](N)C(=O)O; Cha = N[C@@H](CC1CCCCC1)C(=O)O; Aic = NC1(C(=O)O)Cc2ccccc2C1; Tle = CC(C)(C)[C@H](N)C(=O)O; Nle = CCCC[C@H](N)C(=O)O; Deg = CCC(N)(CC)C(=O)O; AEEA = NCCOCCOCC(=O)O
T1: rat APJ receptor (rat, UniProt Q9JHG3 1-377)
T1 sequence (looked up): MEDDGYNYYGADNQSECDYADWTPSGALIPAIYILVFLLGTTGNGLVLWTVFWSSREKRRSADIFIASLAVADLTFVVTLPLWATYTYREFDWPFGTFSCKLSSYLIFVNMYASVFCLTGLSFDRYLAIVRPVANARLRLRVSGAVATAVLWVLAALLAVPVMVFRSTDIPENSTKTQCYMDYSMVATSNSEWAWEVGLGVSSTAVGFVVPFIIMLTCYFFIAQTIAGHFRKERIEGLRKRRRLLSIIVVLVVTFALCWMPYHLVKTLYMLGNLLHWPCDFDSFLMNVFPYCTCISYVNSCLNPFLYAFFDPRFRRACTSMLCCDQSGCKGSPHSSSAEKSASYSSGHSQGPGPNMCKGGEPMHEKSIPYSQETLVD

T2: human APJ receptor (human, UniProt P35414 1-380)
T2 sequence (looked up): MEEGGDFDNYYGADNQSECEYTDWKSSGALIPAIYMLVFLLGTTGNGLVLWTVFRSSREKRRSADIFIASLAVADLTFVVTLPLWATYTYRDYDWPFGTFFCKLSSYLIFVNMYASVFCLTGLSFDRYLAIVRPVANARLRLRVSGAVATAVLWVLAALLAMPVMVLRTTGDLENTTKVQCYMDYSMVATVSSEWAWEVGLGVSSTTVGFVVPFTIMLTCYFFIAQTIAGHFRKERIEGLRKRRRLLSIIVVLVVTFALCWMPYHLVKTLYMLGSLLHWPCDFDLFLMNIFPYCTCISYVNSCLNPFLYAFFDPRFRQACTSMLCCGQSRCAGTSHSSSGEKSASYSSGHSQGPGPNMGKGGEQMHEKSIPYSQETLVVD

B1: Apelin polypeptide SEQ ID NO: 372 (peptide)
peptide: Tridecanoyl-[γGlu][AEEA][AEEA][dQ][hArg]P[dR][Cha]SAKG[Oic][Nle]P[Phe(4-Cl)]-OH
SMILES: CCCCCCCCCCCCC(=O)N[C@@H](CCC(=O)NCCOCCOCC(=O)NCCOCCOCC(=O)N[C@H](CCC(N)=O)C(=O)N[C@@H](CCCCNC(=N)N)C(=O)N1CCC[C@H]1C(=O)N[C@H](CCCNC(=N)N)C(=O)N[C@@H](CC1CCCCC1)C(=O)N[C@@H](CO)C(=O)N[C@@H](C)C(=O)N[C@@H](CCCCN)C(=O)NCC(=O)N1[C@H](C(=O)N[C@@H](CCCC)C(=O)N2CCC[C@H]2C(=O)N[C@@H](Cc2ccc(Cl)cc2)C(=O)O)C[C@@H]2CCCC[C@@H]21)C(=O)O
B2: Apelin polypeptide SEQ ID NO: 452 (peptide)
peptide: Tridecanoyl-[γGlu][AEEA][AEEA][dQ][hArg]P[dR][Cha]S[Tle]KG[Oic][Nle]P[Phe(4-Cl)]-OH
SMILES: CCCCCCCCCCCCC(=O)N[C@@H](CCC(=O)NCCOCCOCC(=O)NCCOCCOCC(=O)N[C@H](CCC(N)=O)C(=O)N[C@@H](CCCCNC(=N)N)C(=O)N1CCC[C@H]1C(=O)N[C@H](CCCNC(=N)N)C(=O)N[C@@H](CC1CCCCC1)C(=O)N[C@@H](CO)C(=O)N[C@H](C(=O)N[C@@H](CCCCN)C(=O)NCC(=O)N1[C@H](C(=O)N[C@@H](CCCC)C(=O)N2CCC[C@H]2C(=O)N[C@@H](Cc2ccc(Cl)cc2)C(=O)O)C[C@@H]2CCCC[C@@H]21)C(C)(C)C)C(=O)O
B3: Apelin polypeptide SEQ ID NO: 405 (peptide)
peptide: Tridecanoyl-[AC4Abu][AEEA][AEEA]Q[hArg]P[NMeR][Cha]SHKG[Oic][Nle]P[2Nal]-OH
SMILES: CCCCCCCCCCCCC(=O)NCCC(C(=O)O)C(=O)NCCOCCOCC(=O)NCCOCCOCC(=O)N[C@@H](CCC(N)=O)C(=O)N[C@@H](CCCCNC(=N)N)C(=O)N1CCC[C@H]1C(=O)N(C)[C@@H](CCCNC(=N)N)C(=O)N[C@@H](CC1CCCCC1)C(=O)N[C@@H](CO)C(=O)N[C@@H](Cc1c[nH]cn1)C(=O)N[C@@H](CCCCN)C(=O)NCC(=O)N1[C@H](C(=O)N[C@@H](CCCC)C(=O)N2CCC[C@H]2C(=O)N[C@@H](Cc2ccc3ccccc3c2)C(=O)O)C[C@@H]2CCCC[C@@H]21
B4: Apelin polypeptide SEQ ID NO: 478 (peptide)
peptide: Tridecanoyl-[γGlu][AEEA][AEEA][dQ][hArg]P[NMeR][Cha]SHKG[Oic][Nle]P[Phe(4-Cl)]-OH
SMILES: CCCCCCCCCCCCC(=O)N[C@@H](CCC(=O)NCCOCCOCC(=O)NCCOCCOCC(=O)N[C@H](CCC(N)=O)C(=O)N[C@@H](CCCCNC(=N)N)C(=O)N1CCC[C@H]1C(=O)N(C)[C@@H](CCCNC(=N)N)C(=O)N[C@@H](CC1CCCCC1)C(=O)N[C@@H](CO)C(=O)N[C@@H](Cc1c[nH]cn1)C(=O)N[C@@H](CCCCN)C(=O)NCC(=O)N1[C@H](C(=O)N[C@@H](CCCC)C(=O)N2CCC[C@H]2C(=O)N[C@@H](Cc2ccc(Cl)cc2)C(=O)O)C[C@@H]2CCCC[C@@H]21)C(=O)O
B5: Apelin polypeptide SEQ ID NO: 362 (peptide)
peptide: Tridecanoyl-[γGlu][AEEA][AEEA]Q[hArg]P[NMeR][Cha]SHKG[Oic][Nle]P[Phe(4-Cl)]-OH
SMILES: CCCCCCCCCCCCC(=O)N[C@@H](CCC(=O)NCCOCCOCC(=O)NCCOCCOCC(=O)N[C@@H](CCC(N)=O)C(=O)N[C@@H](CCCCNC(=N)N)C(=O)N1CCC[C@H]1C(=O)N(C)[C@@H](CCCNC(=N)N)C(=O)N[C@@H](CC1CCCCC1)C(=O)N[C@@H](CO)C(=O)N[C@@H](Cc1c[nH]cn1)C(=O)N[C@@H](CCCCN)C(=O)NCC(=O)N1[C@H](C(=O)N[C@@H](CCCC)C(=O)N2CCC[C@H]2C(=O)N[C@@H](Cc2ccc(Cl)cc2)C(=O)O)C[C@@H]2CCCC[C@@H]21)C(=O)O
B6: Apelin polypeptide SEQ ID NO: 354 (peptide)
peptide: Tridecanoyl-[γGlu][AEEA][AEEA]Q[hArg]P[NMeR]LSHKG[Oic][Nle]P[Phe(4-Cl)]-OH
SMILES: CCCCCCCCCCCCC(=O)N[C@@H](CCC(=O)NCCOCCOCC(=O)NCCOCCOCC(=O)N[C@@H](CCC(N)=O)C(=O)N[C@@H](CCCCNC(=N)N)C(=O)N1CCC[C@H]1C(=O)N(C)[C@@H](CCCNC(=N)N)C(=O)N[C@@H](CC(C)C)C(=O)N[C@@H](CO)C(=O)N[C@@H](Cc1c[nH]cn1)C(=O)N[C@@H](CCCCN)C(=O)NCC(=O)N1[C@H](C(=O)N[C@@H](CCCC)C(=O)N2CCC[C@H]2C(=O)N[C@@H](Cc2ccc(Cl)cc2)C(=O)O)C[C@@H]2CCCC[C@@H]21)C(=O)O
B7: Apelin polypeptide SEQ ID NO: 451 (peptide)
peptide: Tridecanoyl-[γGlu][AEEA][AEEA][dQ][hArg]P[dR][Cha]S[Deg]KG[Oic][Nle]P[Phe(4-Cl)]-OH
SMILES: CCCCCCCCCCCCC(=O)N[C@@H](CCC(=O)NCCOCCOCC(=O)NCCOCCOCC(=O)N[C@H](CCC(N)=O)C(=O)N[C@@H](CCCCNC(=N)N)C(=O)N1CCC[C@H]1C(=O)N[C@H](CCCNC(=N)N)C(=O)N[C@@H](CC1CCCCC1)C(=O)N[C@@H](CO)C(=O)NC(CC)(CC)C(=O)N[C@@H](CCCCN)C(=O)NCC(=O)N1[C@H](C(=O)N[C@@H](CCCC)C(=O)N2CCC[C@H]2C(=O)N[C@@H](Cc2ccc(Cl)cc2)C(=O)O)C[C@@H]2CCCC[C@@H]21)C(=O)O

Target: T1, rat APJ receptor
Assay: cell-based or functional assay

EC50 Rat APJ Receptor (GTPγS assay) [nM] | Binder
1.5 | B1
20.7 | Tridecanoyl-[γGlu][AEEA][AEEA][dQ][hArg]P[dR][Cha]SHKG[Oic][Nle]P[Oic]-OH [Apelin polypeptide SEQ ID NO: 365]
25 | B2
13.8 | B3
3.96 | Tridecanoyl-[γGlu][AEEA][AEEA][dQ][hArg]P[dR][Cha]SHKG[Oic][Nle]P[Phe(4-Cl)]-OH [Apelin polypeptide SEQ ID NO: 363]
0.807 | B4
23.6 | Tridecanoyl-[γGlu][AEEA][AEEA][dQ][hArg]P[dR][Cha]SHKG[Oic][Nle]P[Aic]-OH [Apelin polypeptide SEQ ID NO: 366]
20.4 | Tridecanoyl-[γGlu][AEEA][AEEA]Q[hArg]P[dR][Cha]SHKG[Oic][Nle]P[D‑4ClF]-OH [Apelin polypeptide SEQ ID NO: 364]
67.5 | Tridecanoyl-[γGlu][AEEA][AEEA][dQ][hArg]P[dR][Cha]SHKG[Oic][Nle]P[1Nal]-OH [Apelin polypeptide SEQ ID NO: 367]
31.4 | Tridecanoyl-[γGlu][AEEA][AEEA][dQ][hArg]P[dR][Cha]SHKG[Oic][Nle]P[2Nal]-OH [Apelin polypeptide SEQ ID NO: 368]
3.75 | B5
4.67 | Tridecanoyl-[γGlu][AEEA][AEEA][dQ][hArg]P[dR][Cha]SHK[Tle][Oic][Nle]P[Phe(4-Cl)]-OH [Apelin polypeptide SEQ ID NO: 371]
23.7 | Tridecanoyl-[γGlu][AEEA][AEEA][dQ][hArg]P[dR][Cha]SHKG[Oic][Nle]P[Bh4ClF]-OH [Apelin polypeptide SEQ ID NO: 370]
0.361 | B6
0.275 | XXXQRPRLSHKGPXPF ({TDA}[AC4Abu][Aeea][Aeea]Q[hArg]P[NMeArg]LSHKGP[Nle]P[4-Cl-F]{COOH}) [Apelin polypeptide SEQ ID NO: 353]
31.6 | B7
42 | Tridecanoyl-[γGlu][AEEA][AEEA][dQ][hArg]P[dR][Cha]SHKG[Oic][Nle]P[D‑4IF]-OH [Apelin polypeptide SEQ ID NO: 369]

Target: T2, human APJ receptor
Assay: cell-based or functional assay

EC50 Human APJ Receptor (GTPγS assay) [nM] | Binder
2.84 | B1
23 | Tridecanoyl-[γGlu][AEEA][AEEA][dQ][hArg]P[dR][Cha]SHKG[Oic][Nle]P[Oic]-OH [Apelin polypeptide SEQ ID NO: 365]
10.4 | B2
5.75 | B3
3.27 | Tridecanoyl-[γGlu][AEEA][AEEA][dQ][hArg]P[dR][Cha]SHKG[Oic][Nle]P[Phe(4-Cl)]-OH [Apelin polypeptide SEQ ID NO: 363]
0.496 | B4
17.1 | Tridecanoyl-[γGlu][AEEA][AEEA][dQ][hArg]P[dR][Cha]SHKG[Oic][Nle]P[Aic]-OH [Apelin polypeptide SEQ ID NO: 366]
6 | Tridecanoyl-[γGlu][AEEA][AEEA]Q[hArg]P[dR][Cha]SHKG[Oic][Nle]P[D‑4ClF]-OH [Apelin polypeptide SEQ ID NO: 364]
26.3 | Tridecanoyl-[γGlu][AEEA][AEEA][dQ][hArg]P[dR][Cha]SHKG[Oic][Nle]P[1Nal]-OH [Apelin polypeptide SEQ ID NO: 367]
32.3 | Tridecanoyl-[γGlu][AEEA][AEEA][dQ][hArg]P[dR][Cha]SHKG[Oic][Nle]P[2Nal]-OH [Apelin polypeptide SEQ ID NO: 368]
1.97 | B5
6.92 | Tridecanoyl-[γGlu][AEEA][AEEA][dQ][hArg]P[dR][Cha]SHK[Tle][Oic][Nle]P[Phe(4-Cl)]-OH [Apelin polypeptide SEQ ID NO: 371]
12.9 | Tridecanoyl-[γGlu][AEEA][AEEA][dQ][hArg]P[dR][Cha]SHKG[Oic][Nle]P[Bh4ClF]-OH [Apelin polypeptide SEQ ID NO: 370]
0.279 | B6
0.095 | XXXQRPRLSHKGPXPF ({TDA}[AC4Abu][Aeea][Aeea]Q[hArg]P[NMeArg]LSHKGP[Nle]P[4-Cl-F]{COOH}) [Apelin polypeptide SEQ ID NO: 353]
11.2 | B7
25.9 | Tridecanoyl-[γGlu][AEEA][AEEA][dQ][hArg]P[dR][Cha]SHKG[Oic][Nle]P[D‑4IF]-OH [Apelin polypeptide SEQ ID NO: 369]
